According to paper PMC4237994:

T1: Isl-1-Myc (UniProt P61372 1-349)
T1 sequence: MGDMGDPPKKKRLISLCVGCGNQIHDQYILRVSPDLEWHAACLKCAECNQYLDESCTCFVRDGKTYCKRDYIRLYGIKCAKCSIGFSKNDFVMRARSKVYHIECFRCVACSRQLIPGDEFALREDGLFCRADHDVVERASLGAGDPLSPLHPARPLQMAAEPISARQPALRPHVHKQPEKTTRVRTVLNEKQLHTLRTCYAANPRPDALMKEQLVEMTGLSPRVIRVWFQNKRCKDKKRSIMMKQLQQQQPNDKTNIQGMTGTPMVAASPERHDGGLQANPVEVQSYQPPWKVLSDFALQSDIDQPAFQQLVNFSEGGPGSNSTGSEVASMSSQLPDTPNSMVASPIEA

B1: Pdx1 Area II-3 (dsDNA)
DNA 1: AATGCATGCAATTAGACCAGAAGTGCTAA
DNA 2: TTAGCACTTCTGGTCTAATTGCATGCATT
B2: Pdx1 Area I-4 (dsDNA)
DNA 1: GTATCACCCATAATGGATTTAGCCACCT
DNA 2: AGGTGGCTAAATCCATTATGGGTGATAC
B3: Pdx1 Area IV-4 (dsDNA)
DNA 1: TTATTGCCTGCCTTTAATTGTACTTAT
DNA 2: ATAAGTACAATTAAAGGCAGGCAATAA

Molecular target: T1, Isl-1-Myc
Test: competition

Binding result, binds:
B1
B2
B3
